# From the supplement of paper PMC9112550, “Optimization of the antimicrobial peptide Bac7 by deep mutational scanning” (BMC Biology, 2022)
# Tested on: Escherichia coli TOP10
# Assay: shrunken log2 fold change of peptide-encoding DNA abundance (4.5 h post-induction vs induction); higher = less antimicrobial activity (less host growth inhibition)
# Conditions: time post-induction: 4.5 h; library: site-saturation at positions 5, 18, 19, 20
# 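Note: peptides expressed intracellularly from a pBAD plasmid library in pooled LB shake-flask culture, induced with 0.3% L-arabinose, DNA abundance read by NGS, three biological replicates, DESeq2 with apeglm shrinkage.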
row,Sequence,shrunken log2 fold change
1,RRIRHRPPRLPRPRPRPVFNPRP,-0.532
2,RRIRERPPRLPRPRPRPSTFPRP,2.07
3,RRIRPRPPRLPRPRPRPQHHPRP,-0.302
4,RRIRNRPPRLPRPRPRPVNVPRP,-0.304
5,RRIRVRPPRLPRPRPRPNVCPRP,-0.111
6,RRIRERPPRLPRPRPRPPQHPRP,0.128
7,RRIRRRPPRLPRPRPRPRACPRP,0.352
8,RRIRTRPPRLPRPRPRPQFGPRP,-0.00643
9,RRIRHRPPRLPRPRPRPMSAPRP,-0.549
10,RRIRMRPPRLPRPRPRPRDLPRP,0.266
11,RRIRKRPPRLPRPRPRPNRTPRP,-0.0227
12,RRIRWRPPRLPRPRPRPKVRPRP,-0.00879
13,RRIRCRPPRLPRPRPRPCSCPRP,-1.33
14,RRIRWRPPRLPRPRPRPPTQPRP,0.312
15,RRIRRRPPRLPRPRPRPWTAPRP,-0.106
16,RRIRNRPPRLPRPRPRPMHGPRP,-0.0225
17,RRIRVRPPRLPRPRPRPTWAPRP,0.194
18,RRIRCRPPRLPRPRPRPVCHPRP,-0.294
19,RRIRFRPPRLPRPRPRPKETPRP,-0.0433
20,RRIRERPPRLPRPRPRPSLSPRP,-0.573
21,RRIRIRPPRLPRPRPRPHHMPRP,-1.2
22,RRIRGRPPRLPRPRPRPILHPRP,0.0775

row,Sequence,shrunken log2 fold change
1,RRIRWRPPRLPRPRPRPFYQPRP,-0.0811
2,RRIRWRPPRLPRPRPRPGVEPRP,0.579
3,RRIRERPPRLPRPRPRPGFWPRP,0.407
4,RRIRMRPPRLPRPRPRPESKPRP,2.93
5,RRIRKRPPRLPRPRPRPIINPRP,0.172
6,RRIRFRPPRLPRPRPRPIYMPRP,-0.878
7,RRIRKRPPRLPRPRPRPNQRPRP,-0.192
8,RRIRLRPPRLPRPRPRPQEIPRP,-0.0701
9,RRIRSRPPRLPRPRPRPMLEPRP,-0.0898
10,RRIRTRPPRLPRPRPRPLGPPRP,0.114
11,RRIRIRPPRLPRPRPRPATNPRP,-0.339
12,RRIRFRPPRLPRPRPRPNPRPRP,0.427
13,RRIRQRPPRLPRPRPRPFQGPRP,-0.0134
14,RRIRWRPPRLPRPRPRPPKRPRP,0.388
15,RRIRWRPPRLPRPRPRPLMAPRP,0.247
16,RRIRRRPPRLPRPRPRPYGRPRP,-0.0338
17,RRIRDRPPRLPRPRPRPLTQPRP,0.0757
18,RRIRFRPPRLPRPRPRPLEIPRP,-0.0193
19,RRIRRRPPRLPRPRPRPRDHPRP,0.397
20,RRIRKRPPRLPRPRPRPETIPRP,0.0906
21,RRIRPRPPRLPRPRPRPHFRPRP,0.0655
22,RRIRHRPPRLPRPRPRPYDIPRP,-0.387

row,Sequence,shrunken log2 fold change
1,RRIRLRPPRLPRPRPRPFNWPRP,-0.223
2,RRIRERPPRLPRPRPRPVPTPRP,0.116
3,RRIRDRPPRLPRPRPRPSRDPRP,0.00173
4,RRIRCRPPRLPRPRPRPHLAPRP,-0.0147
5,RRIRCRPPRLPRPRPRPTPIPRP,0.244
6,RRIRCRPPRLPRPRPRPDRIPRP,-0.0911
7,RRIRQRPPRLPRPRPRPFWRPRP,-0.044
8,RRIRMRPPRLPRPRPRPFTTPRP,-0.0216
9,RRIRPRPPRLPRPRPRPNGTPRP,0.247
10,RRIRYRPPRLPRPRPRPYWMPRP,-0.686
11,RRIRMRPPRLPRPRPRPKQIPRP,0.371
12,RRIRERPPRLPRPRPRPQAQPRP,-0.0773
13,RRIRHRPPRLPRPRPRPWFCPRP,-0.583
14,RRIRSRPPRLPRPRPRPISIPRP,0.0336
15,RRIRIRPPRLPRPRPRPCRKPRP,-0.0747
16,RRIRRRPPRLPRPRPRPFGVPRP,0.0764
17,RRIRPRPPRLPRPRPRPYQRPRP,0.0369
18,RRIRTRPPRLPRPRPRPKDTPRP,-0.076
19,RRIRHRPPRLPRPRPRPLWQPRP,-0.145
20,RRIRMRPPRLPRPRPRPQPVPRP,0.622
21,RRIRLRPPRLPRPRPRPLYSPRP,-1.1
22,RRIRFRPPRLPRPRPRPKCTPRP,-0.243

row,Sequence,shrunken log2 fold change
1,RRIRGRPPRLPRPRPRPKNHPRP,0.179
2,RRIRVRPPRLPRPRPRPSYFPRP,-0.131
3,RRIRIRPPRLPRPRPRPITCPRP,-0.378
4,RRIRNRPPRLPRPRPRPLFSPRP,-0.753
5,RRIRVRPPRLPRPRPRPDQLPRP,0.112
6,RRIRKRPPRLPRPRPRPLMDPRP,0.16
7,RRIRMRPPRLPRPRPRPQIAPRP,0.208
8,RRIRDRPPRLPRPRPRPVKMPRP,-0.0606
9,RRIRHRPPRLPRPRPRPVEPPRP,0.109
10,RRIRTRPPRLPRPRPRPLALPRP,-0.0853
11,RRIRNRPPRLPRPRPRPSWQPRP,-0.0148
12,RRIRCRPPRLPRPRPRPIMIPRP,-0.566
13,RRIRLRPPRLPRPRPRPSPAPRP,0.254
14,RRIRHRPPRLPRPRPRPDRDPRP,-0.0136
15,RRIRYRPPRLPRPRPRPNYEPRP,-0.399
16,RRIRRRPPRLPRPRPRPYQKPRP,-0.458
17,RRIRDRPPRLPRPRPRPAAWPRP,1.56
18,RRIRMRPPRLPRPRPRPAKRPRP,1.21
19,RRIRSRPPRLPRPRPRPQRCPRP,-0.0342
20,RRIRRRPPRLPRPRPRPVSDPRP,0.444
21,RRIRLRPPRLPRPRPRPWTAPRP,0.0908
22,RRIRFRPPRLPRPRPRPPNRPRP,0.266

row,Sequence,shrunken log2 fold change
1,RRIRIRPPRLPRPRPRPPTCPRP,-0.278
2,RRIRARPPRLPRPRPRPKANPRP,0.297
3,RRIRVRPPRLPRPRPRPLPVPRP,0.0196
4,RRIRARPPRLPRPRPRPWLSPRP,0.18
5,RRIRHRPPRLPRPRPRPCMVPRP,-0.342
6,RRIRSRPPRLPRPRPRPKGEPRP,0.379
7,RRIRCRPPRLPRPRPRPSDIPRP,-0.814
8,RRIRHRPPRLPRPRPRPRYTPRP,-0.123
9,RRIRPRPPRLPRPRPRPVYDPRP,-0.711
10,RRIRRRPPRLPRPRPRPYPMPRP,-0.187
11,RRIRERPPRLPRPRPRPEDQPRP,-0.0394
12,RRIRGRPPRLPRPRPRPCYIPRP,0.0972
13,RRIRCRPPRLPRPRPRPCHFPRP,-0.273
14,RRIRSRPPRLPRPRPRPSWCPRP,-0.132
15,RRIRHRPPRLPRPRPRPHQCPRP,1.73
16,RRIRGRPPRLPRPRPRPACYPRP,0.896
17,RRIRWRPPRLPRPRPRPNPCPRP,-0.0647
18,RRIRMRPPRLPRPRPRPQMYPRP,-0.24
19,RRIRFRPPRLPRPRPRPTAYPRP,-0.243
20,RRIRCRPPRLPRPRPRPINVPRP,-0.307
21,RRIRVRPPRLPRPRPRPIWPPRP,-0.0228
